Results: patent US20090311267A1 (UNIVERSITY OF WURZBURG, published 2009)
“And” between values parts separate entries of the source, which are not always exact repeats. Equal values may be shown once.

Key:
[1] = target: T1, (1-289) recombinant (r) GPIbα fragment expressed by Chinese hamster ovary cells (human, UniProt P07359 17-305); test: ELISA: inhibition of ristocetin (300 µg/ml)-induced binding of vWF to rGPIbα captured on 2D4
T1 construct: they seem to count on the mature chain, not on the precursor; Fragment obtained from Meyer et al; also called rGPIb-fragment; recombinant GPIbα fragment (His1-Val289)

[2] = target: T1, (1-289) recombinant (r) GPIbα fragment …; test: ELISA: inhibition of botrocetin (0.5 µg/ml)-induced binding of vWF to rGPIbα captured on 2D4
[3] = target: human platelet glycoprotein GPIb (on human platelets) (human, UniProt P07359 17-652); test: cell-based or functional assay

IC50 [1]: 1.8 µg/mL and 36 nM
IC50 [2]: 2.5 µg/mL and 50 nM
IC50 of botrocetin-(0.5 µg/ml) induced human platelet agglutination [3]: 2 µg/ml and 40 nmol/L
IC50 of ristocetin-(1 mg/ml) induced human platelet agglutination [3]: 1.2 µg/ml and 24 nmol/L
B1: 6B4 Fab fragments (Fab, V domains shown)
VH: QVQLQESGPGLVAPSQSLSITCTVSGISLNRYGVHWVRQPPGKGLEWLGVIWTGGSTNYNSALMSRLSISKDNSKSQVFLKMNSLQTDDTAMYYCARDRSTMITAYAMDYWGQGTTVTVSS
VL: DIELTQSPAIMSASPGEKVTMTCSASSSVNYMHWFQQESGTFPKRRIYDTSKLASGVPARLSGSGSGTEFTLEISRVKAEDVGVYYCQQLVEYPLTFGAGTKLELK
